Results taken from patent US20220403009A1 (IGM BIOSCIENCES, published 2022).
Changes are numbered by the printed parent chain.

B1: Ab1 IgM (antibody)
VH: EVQLVESGGGLVQPGGSLRLSCAASGFTVSSNYMSWVRQAPGKGLEWVSVIYSGGSTFYADSVKGRFTISRDNSMNTLFLQMNSLRAEDTAVYYCARVLPMYGDYLDYWGQGTLVTVSS
VL: not shown
chain: not shown
B2: Ab1 IgG (antibody, V domains shown)
VH: B1 VH
VL: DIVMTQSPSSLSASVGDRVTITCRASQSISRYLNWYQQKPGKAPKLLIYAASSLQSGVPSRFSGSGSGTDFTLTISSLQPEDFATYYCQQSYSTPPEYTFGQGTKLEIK
B3: Ab8 IgM (antibody)
VH: EVQLVESGGGLIQPGGSLRLSCAASGFTVSRNYMNWVRQAPGKGLEWVSVIYSGGSTFYADSVKGRFTISRDNSKNTLYLQMNSLRAEDTAVYYCARDASSYGIDWGQGTLVTVSS
VL: not shown
chain: not shown
B4: Ab8 IgG (antibody, V domains shown)
VH: B3 VH
VL: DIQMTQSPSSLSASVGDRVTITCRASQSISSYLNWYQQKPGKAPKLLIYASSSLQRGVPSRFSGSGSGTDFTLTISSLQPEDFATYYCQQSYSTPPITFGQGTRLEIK
B5: Ab3 IgM (antibody)
VH: QVQLVESGGGLVKPGGSLRLSCAASGFTFSDYYMSWIRQAPGKGLEWVSYITYSGSTIYYADSVKGRFTISRDNAKSSLYLQMNSLRAEDTAVYYCARDRGTTMVPFDYWGQGTLVTVSS
VL: DIQMTQSPSSLSASVGDRVTITCQASQDITNYLNWYQQKPGKAPKLLIYAASNLETGVPSRFSGSGSGTDFTFTISGLQPEDIATYYCQQYDNLPLTFGGGTKVEIK
chain: not shown
B6: Ab7 IgM (antibody)
VH: EVQLVESGGGLVQPGGSLRLSCAVSGFTVSSNYMSWVRQAPGKGLEWVSVIYTGGGTYYADSVKGRFTISRDNSKNTLYLQMNTLRAEDTTVYYCARGDGSYYRAFDYWGQGTLVTVSS
VL: DIQMTQSPSSLSASVGDRVTITCRASQSISNYLNWYHQKPGKAPKLLIYAASSLQSGVPSRFSGSGSGTDFTLTISSLQPEDFATYYCQQSYSPPPTFGPGTKVEIK
chain: not shown
B7: Ab7 IgG (antibody, V domains shown)
VH: B6 VH
VL: B6 VL
B8: Ab4 IgM (antibody)
VH: QVQLVESGGGVVQPGRSLRLSCAASGFTFSNYAMYWVRQAPGKGLEWVAVISYDGSNKYYADSVKGRFTISRDNSKNTLYLQMNSLRTEDTAVYYCASGSDYGDYLLVYWGQGTLVTVSS
VL: QSALTQPASVSGSPGQSITISCTGTSSDVGGYNYVSWYQQHPGKAPKLMIYDVSKRPSGVSNRFSGSKSGNTASLTISGLQSEDEADYYCNSLTSISTWVFGGGTKLTVL
chain: not shown
B9: Ab4 IgG (antibody, V domains shown)
VH: B8 VH
VL: B8 VL
B10: CR3022 IgA2m2 + J (antibody)
VH: QMQLVQSGTEVKKPGESLKISCKGSGYGFITYWIGWVRQMPGKGLEWMGIIYPGDSETRYSPSFQGQVTISADKSINTAYLQWSSLKASDTAIYYCAGGSGISTPMDVWGQGTTVTVSS
VL: not shown
chain: not shown
B11: CR3022 IgM + J (antibody)
VH: B10 VH
VL: not shown
chain: not shown
B12: CR3022 IgA1 + J (antibody)
VH: B10 VH
VL: not shown
chain: not shown
B13: Ab10 IgM (antibody)
VH: QITLKESGPTLVKPTQTLTLTCTFSGFSLSTSGVGVGWIRQPPGKALEWLALIYWDDDKRYSPSLKSRLTITKDTSKNQVVLTMTNMDPVDTATYYCAHHKIERIFDYWGQGTLVTVSS
VL: QSALAQPASVSGSPGQSITISCTGTSSDVGAYNYVSWYQQHPGKAPKLMIYDVSKRPSGVSNRFSGSKSGNTASLTISGLQAEDEADYYCSSYTTSSTVFGGGTKLTVL
chain: not shown
B14: Ab10 IgG (antibody, V domains shown)
VH: B13 VH
VL: B13 VL
B15: Ab3 IgG (antibody, V domains shown)
VH: B5 VH
VL: B5 VL
B16: Ab12 IgM (antibody)
VH: not shown
VL: B8 VL with S82A, A86G, N91S, L93Y, I96S
chain: not shown
B17: Ab12 IgG (antibody, V domains shown)
VH: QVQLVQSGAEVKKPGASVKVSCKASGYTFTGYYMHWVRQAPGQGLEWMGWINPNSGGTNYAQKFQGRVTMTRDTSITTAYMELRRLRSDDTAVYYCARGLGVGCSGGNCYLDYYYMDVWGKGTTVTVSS
VL: B8 VL with S82A, A86G, N91S, L93Y, I96S
B18: Ab11 IgM (antibody)
VH: QVQLVQSGAEVKKPGSSVKVSCKASGGTFSSYAISWVRQAPGQGLEWMGGNIPIFGTANYAQKFQGRVTITADESTSTAYMELSSLRSEDTAVYYCARGVGYRGVIPLNWFDPWGQGTVVTVSS
VL: EIVMTQSPATLSVSPGERATLSCRASQSVSSDLAWYQHKPGQAPRLLIYGASTRATGIPVRFSGSGSGTEFTLTISSLQSEDFAVYYCQQYNNWPPFTFGGGTKVEIK
chain: not shown
B19: Ab11 IgG (antibody, V domains shown)
VH: B18 VH
VL: B18 VL

Molecular target: T1, SARS-CoV-2 spike protein on live SARS-CoV-2 virus (SARS-CoV-2, UniProt P0DTC2 13-1273)
Assay: cell-based or functional assay

Row | Binder | IgM Fold Improvement Over IgG1 | IgM IC50, SARS-CoV-2 live virus microneutralization | IgG IC50, SARS-CoV-2 live virus microneutralization
1 | B1 | 10 fold | 13 ng/mL | 
2 | B2 |  |  | 130 ng/mL
3 | B3 | 3.3 fold | 28 ng/mL | 
4 | B4 |  |  | 93 ng/mL
5 | B5 |  | 3.8 ng/mL | 
6 | B6 | 19 fold | 1.6 ng/mL | 
7 | B7 |  |  | 30 ng/mL
8 | B8 | 59 fold | 3.1 ng/mL | 
9 | B9 |  |  | 180 ng/mL

Molecular target: SARS-CoV-1 spike protein on HIV-based pseudovirus (SARS-CoV, UniProt P59594 14-1255)
Assay: cell-based or functional assay

Row | Binder | IC50, SARS-CoV-1 pseudovirus neutralization
10 | B10 | 2.3 µg/mL
11 | B11 | 0.47 µg/mL
12 | B12 | 1.9 µg/mL

Molecular target: T2, SARS-CoV-2 spike protein on pseudovirus (SARS-CoV-2, UniProt P0DTC2 13-1273)
Assay: cell-based or functional assay

Row | Binder | IC50, SARS-CoV-2 pseudovirus neutralization
13 | B10 | > 100 mg/mL
14 | B11 | > 100 mg/mL
15 | B12 | > 100 mg/mL

Molecular target: T2, SARS-CoV-2 spike protein on pseudovirus
Assay: cell-based or functional assay
Remark: another data set of the same source

Row | Binder | IgM Fold Improvement Over IgG1 | IgM IC50, SARS-CoV-2 pseudovirus neutralization | IgG IC50, SARS-CoV-2 pseudovirus neutralization
16 | B1 | 67 fold | 0.15 ng/mL | 
17 | B2 |  |  | 10 ng/mL
18 | B13 | 64 fold | 0.092 ng/mL | 
19 | B14 |  |  | 5.9 ng/mL
20 | B3 |  | 2.7 ng/mL | 
21 | B4 |  |  | 1.9 ng/mL
22 | B5 |  | 0.11 ng/mL | 
23 | B15 |  |  | 0.57 ng/mL
24 | B6 | 8.8 fold | 0.042 ng/mL | 
25 | B7 |  |  | 0.37 ng/mL
26 | B8 | 31 fold | 0.058 ng/mL | 
27 | B16 | 180 fold | 0.42 ng/mL | 
28 | B17 |  |  | 77 ng/mL
29 | B9 |  |  | 1.8 ng/mL
30 | B18 | 86 fold | 3.7 ng/mL | 
31 | B19 |  |  | 320 ng/mL

Molecular target: recombinant SARS-CoV-2 spike (S) protein trimer (SARS-CoV-2, UniProt P0DTC2 13-1213)
Assay: not given

Row | Binder | EC50 (read off the curve)
32 | B13 | ~0.3 nM
33 | B14 | ~1 nM

Molecular target: T1, SARS-CoV-2 spike protein on live …
Assay: cell-based or functional assay
Remark: another data set of the same source

Row | Binder | IgM Fold Improvement Over IgG1 | IgM IC50, SARS-CoV-2 live virus microneutralization | IgG IC50, SARS-CoV-2 live virus microneutralization
34 | B13 | 390 fold | 1.2 ng/mL | 
35 | B14 |  |  | 470 ng/mL
36 | B16 | 330 fold | 8.1 ng/mL | 
37 | B17 |  |  | 2700 ng/mL
38 | B18 | > 870 fold | 57 ng/mL | 
39 | B19 |  |  | > 50000 ng/mL
